Reference: US20140274906A1 (NONO, published 2014)
No end group written: not given here.

B1: biotinylated Src40-49 peptide (peptide)
peptide: KPASADGHRG
modifications: also: biotinylated, position not given here
notes: Labelled probe; also called bio-Src 40-49; Bio-Src40-49
B2: Src40-49-Tat (peptide)
peptide: KPASADGHRGYGRKKRRQRRR
B3: Src 40-58 peptide (plated, unlabelled) (peptide)
peptide: KPASADGHRGPSAAFVPAA
B4: Tat-ND2 310-321 (peptide)
peptide: YGRKKRRQRRRNVKMKWQFEHTK
B5: Src40-49 peptide (peptide)
peptide: KPASADGHRG
B6: Tat-Src40-49 (peptide)
peptide: YGRKKRRQRRRKPASADGHRG
B7: biotinylated ND2 310-321 (peptide)
peptide: NVKMKWQFEHTK
modifications: also: biotinylated, position not given here
B8: biotinylated Src 40-58 peptide (peptide)
peptide: KPASADGHRGPSAAFVPAA
modifications: also: biotinylated, position not given here
notes: Probe in dot blots (~15 ug/ml) and ELISA (6 uM); also called biotin-Src 40-58; Biotin-Src 40-58
B9: GST-ND2.1.4 (AA 289-321) (other)
chain: NLYFYLRLIYSTSITLLPMSNNVKMKWQFEHTK
modifications: also: GST fusion, linker and position in fusion not given here
notes: also called ND2 2.1.4; not shown: glutathione S-transferase (GST) fusion partner
B10: biotinylated scrambled Src 40-58 control peptide (peptide)
peptide: AGSHAPFPSPARAGVAPDA
modifications: also: biotinylated, position not given here
notes: Scrambled negative control; also called sSrc 40-58; B-sSRC 40-58

Tests used:
Tat-ND2 310-321 [1] = biological target: B4; assay: ELISA, plate coated with Tat-ND2 310-321 (FIG. 5C)
biotinylated ND2 310-321 [2] = biological target: B7; assay: dot blot, Src fragments spotted, probed with Bio-ND2 310-321 (FIG. 5A)
Tat-ND2 310-321 [3] = biological target: B4; assay: competition ELISA, competitor against biotinylated Src40-49, Tat-ND2 310-321 pre-coated (FIG. 5E)
biotinylated ND2 310-321 [4] = biological target: B7; assay: ELISA, Src peptides plated at ~5 uM (FIG. 5B)
[5] = biological target: B8; assay: ELISA (FIG. 6)
[6] = biological target: B1; assay: competition ELISA, competitor against coated ND2 310-321 peptide (FIG. 7)
ND2 310-321 peptide [7] = biological target: T1, ND2 310-321 peptide (human); assay: competition ELISA, competitor against biotinylated Src40-49 (FIG. 5D)
T1 peptide: NVKMKWQFEHTK

[8] = biological target: B3; assay: ELISA (FIG. 5B)
Src40-49 peptide = biological target: B5; assay: dot blot (FIG. 5A)
Src40-49-Tat = biological target: B2; assay: dot blot (FIG. 5A)
Tat-Src40-49 = biological target: B6; assay: dot blot (FIG. 5A)
Tat-ND2 310-321 [9] = biological target: B4; assay: ELISA (FIG. 6)
ND2 310-321 peptide [10] = biological target: T1, ND2 310-321 peptide; assay: ELISA (FIG. 6); ND2 310-321 is the weaker comparator
GST-ND2.1 (AA239-321) [11] = biological target: T2, GST-ND2.1 (AA239-321) (human, UniProt P03891 239-321); assay: ELISA, GST-ND2.1 coated, biotin-Src 40-58 at 6 uM, SA-HRP (FIG. 2C)
T2 construct: not shown: glutathione S-transferase (GST) fusion partner

GST-ND2.1.4 (AA 289-321) = biological target: B9; assay: ELISA, GST-ND2.1.4 coated, biotin-Src 40-58 at 6 uM, SA-HRP (FIG. 2C)
[12] = biological target: T3, GST-ND2 (full length ND2) (human, UniProt P03891 1-347); assay: dot blot, GST proteins spotted, probed with biotinylated Src 40-58 (FIG. 1C)
T3 construct: GST fusion protein, expressed and purified; printed as full length ND2; not shown: glutathione S-transferase (GST) fusion partner
T3 sequence (P03891 whole entry, the tested form may be a part): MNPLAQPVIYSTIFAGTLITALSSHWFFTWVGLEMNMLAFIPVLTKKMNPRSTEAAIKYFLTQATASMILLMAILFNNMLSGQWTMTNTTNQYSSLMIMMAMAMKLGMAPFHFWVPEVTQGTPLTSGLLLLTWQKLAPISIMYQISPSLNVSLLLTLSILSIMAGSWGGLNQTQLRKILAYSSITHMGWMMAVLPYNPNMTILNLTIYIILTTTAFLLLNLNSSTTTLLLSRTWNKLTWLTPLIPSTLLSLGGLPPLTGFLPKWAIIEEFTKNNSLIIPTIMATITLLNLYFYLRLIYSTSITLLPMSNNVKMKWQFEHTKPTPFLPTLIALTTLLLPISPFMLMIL

[13] = biological target: B8; assay: ELISA (FIG. 2C)
[14] = biological target: B10; assay: dot blot of GST-ND2 constructs (FIG. 2B)
Protocol: (§1) In general, 1-10 ug of peptide or recombinant protein was spotted onto nitrocellulose and dried overnight. Membranes were blocked with 5% milk for 1 h at room temperature, then incubated with biotinylated peptides (˜15 ug/ml) for 2 hours the washed using standard wash buffers. Bound probe was detected using a short incubation with streptavidin conjugated to horseradish peroxidase (SA-HRP) and standard detection reagents, predominantly chemiluminescence kits.

[15] = biological target: T3, GST-ND2 (full length ND2); assay: dot blot of GST-ND2 constructs (FIG. 2B)
Protocol: as §1

GST-ND2.1 (AA239-321) [16] = biological target: T2, GST-ND2.1 (AA239-321); assay: dot blot of GST-ND2 constructs (FIG. 2B)
Protocol: as §1

## B1
Tat-ND2 310-321 [1]
  binding result: binds

## B2
Biotinylated ND2 310-321 [2]
  binding result: binds
Tat-ND2 310-321 [3]
  binding result: binds

## B3
Biotinylated ND2 310-321 [4]
  binding result: binds

## GAAKRPSDGH (also: biotinylated, position not given here, also called Bio-sSrc 40-49; sSrc40-49) [biotinylated scrambled Src 40-49 control peptide]
Tat-ND2 310-321 [1]
  binding result: no binding

## B4
[5]
  binding result: binds
[6]
  binding result: binds

## B5
Biotinylated ND2 310-321 [2]
  binding result: binds

## B6
ND2 310-321 peptide [7]
  binding result: binds
Biotinylated ND2 310-321 [2]
  binding result: binds

## B7
[8]
  binding result: binds
Src40-49 peptide
  binding result: binds
Src40-49-Tat
  binding result: binds
Tat-Src40-49
  binding result: binds

## B8
Tat-ND2 310-321 [9]
  binding result: binds
ND2 310-321 peptide [10]
  binding result: binds
GST-ND2.1 (AA239-321) [11]
  binding result: binds
GST-ND2.1.4 (AA 289-321)
  binding result: binds
[12]
  binding result: binds

## B9
[13]
  binding result: binds
[14]
  binding result: no binding (tested: ~15 ug/ml biotinylated peptide)

## B10
[15]
  binding result: no binding (tested: ~15 ug/ml biotinylated peptide)
GST-ND2.1 (AA239-321) [16]
  binding result: no binding (tested: ~15 ug/ml biotinylated peptide)
